Reference: article PMC7430671 (2020)

B1: RapZ_(1–279), BACTH fusion [E. coli] / full-length RNase E (RneFL), BACTH fusion [E. coli] (parent complex)
chain 1: MVLMIVSGRSGSGKSVALRALEDMGFYCVDNLPVVLLPDLARTLADREISAAVSIDVRNMPESPEIFEQAMSNLPDAFSPQLLFLDADRNTLIRRYSDTRRLHPLSSKNLSLESAIDKESDLLEPLRSRADLIVDTSEMSVHELAEMLRTRLLGKRERELTMVFESFGFKHGIPIDADYVFDVRFLPNPHWDPKLRPMTGLDKPVAAFLDRHTEVHNFIYQTRSYLELWLPMLETNNRSYLTVAIGCTGGKHRSVYIAEQLADYFRSRGKNVQSRHRTL
chain 2: not shown
B2: RapZ_(1–279), BACTH fusion [E. coli] / itself (parent complex)
chain: B1 chain 1

Variants of: B1
Assay: BACTH assay (β-galactosidase activity); top panel; T18-RapZ1-279 variant with T25-RneFL (pYG100); mean ± SD, n ≥ 2; parent: 1.7e+03; read off a plot

In order of rising response:
1. chain 1 T278G, chain 1 L279G  ~50 Miller units
2. chain 1 L279G  ~100 Miller units
3. chain 1 T278G  ~980 Miller units

Variants of: B2
Assay: BACTH assay (self-interaction; β-galactosidase activity); bottom panel; same RapZ1-279 variant fused to T18 and to T25; mean ± SD, n ≥ 2; parent: 4.1e+03; read off a plot

In order of rising response:
1. chain 1 L279G  ~3300 Miller units
2. chain 1 T278G  ~4000 Miller units
